# Test results: patent US20230331809A1 (Zymeworks, published 2023)
# B1: Variant 32479: HA PD-1:WT PD-L1 masked aCD40 Mab, PD-L1 cleavable (not treated with uPa) (antibody, human IgG1, kappa)
# heavy: not shown
# light: AFTVTVPKDLYVVEYGSNMTIECKFPVEKQLDLAALIVYWEMEDKNIIQFVHGEEDLKVQHSSYRQRARLLKDQLSLGNAALQITDVKLQDAGVYRCMISYGGADYKRITVKVNAEAAAKEAAAKMSGRSANADIQMTQSPSSVSASVGDRVTITCRASQGIYSWLAWYQQKPGKAPNLLIYTASTLQSGVPSRFSGSGSGTDFTLTISSLQPEDFATYYCQQANIFPLTFGGGTKVEIKRTVAAPSVFIFPPSDEQLKSGTASVVCLLNNFYPREAKVQWKVDNALQSGNSQESVTEQDSKDSTYSLSSTLTLSKADYEKHKVYACEVTHQGLSSPVTKSFNRGEC
# notes: also called v32479; untreated v32479
# B2: Variant 32477: Unmasked aCD40 mAb (antibody, human IgG1, kappa)
# heavy: not shown
# light: DIQMTQSPSSVSASVGDRVTITCRASQGIYSWLAWYQQKPGKAPNLLIYTASTLQSGVPSRFSGSGSGTDFTLTISSLQPEDFATYYCQQANIFPLTFGGGTKVEIKRTVAAPSVFIFPPSDEQLKSGTASVVCLLNNFYPREAKVQWKVDNALQSGNSQESVTEQDSKDSTYSLSSTLTLSKADYEKHKVYACEVTHQGLSSPVTKSFNRGEC
# notes: also called v32477
# B3: Variant 30436: WT PD-1:HA PD-L1 masked CD3 × Her2 Fab × scFv Fc, PD-1 cleavable (not treated with uPa) (bispecific antibody, human IgG1, kappa, L234A L235A)
# heavy: not shown
# light: AFTVTVPKDLYVVEYGSNMTIECKFPVEKQLDLAALQVFWMMEDKNIIQFVHGEEDLKVQHSSYRQRARLLKDQLSLGNAALQITDVKLQDAGVYTCLIAYKGADYKRITVKVNAEAAAKEAAAKDIQMTQSPSSLSASVGDRVTMTCSASSSVSYMNWYQQKPGKAPKRWIYDSSKLASGVPARFSGSGSGTDYTLTISSLQPEDFATYYCQQWSRNPPTFGGGTKLQITRTVAAPSVFIFPPSDEQLKSGTASVVCLLNNFYPREAKVQWKVDNALQSGNSQESVTEQDSKDSTYSLSSTLTLSKADYEKHKVYACEVTHQGLSSPVTKSFNRGEC
# chain: not shown
# notes: also called masked, heavy-chain-cleavable variant
# Experiments:
# [1] = target: T1, CD40 (Cluster of Differentiation 40) on cells (UniProt P25942 21-277, limits assumed); assay: flow cytometry on Raji cells (CD40), MFI
# T1 construct: whole, on cells
# [2] = target: T1, CD40 (Cluster of Differentiation 40) on …; assay: cell-based or functional assay
# [3] = target: T1, CD40 (Cluster of Differentiation 40) on …; assay: cell-based or functional assay; remark: listed apart in the source
# [4] = target: T1, CD40 (Cluster of Differentiation 40) on …; assay: flow cytometry on Raji cells, sample without uPa
# [5] = target: T1, CD40 (Cluster of Differentiation 40) on …; assay: flow cytometry on Raji cells, samples with and without uPa
# [6] = target: T1, CD40 (Cluster of Differentiation 40) on …; assay: flow cytometry on Raji cells (CD40), MFI; sample treated with uPa; EC50 relative to v32477 -uPa
# [7] = target: T1, CD40 (Cluster of Differentiation 40) on …; assay: flow cytometry on Raji cells (CD40), MFI; sample treated with uPa (variant has no cleavage site)
# [8] = target: T2, CD3 (Cluster of Differentiation 3) on Jurkat cells and on pan T cells (human, UniProt P07766 23-207); assay: cell ELISA on Jurkat cells (CD3), OD450; EC50 relative to v30421
# T2 construct: whole, on cells
# [9] = target: T3, PD-1 (Programmed Cell Death Protein 1) on cells (UniProt Q15116 25-288); assay: flow cytometry on PD-1 transfected CHO-S cells, MFI; * poor fit
# T3 construct: whole, on cells
# [10] = target: T4, PD-L1 (Programmed death-ligand 1) on cells (UniProt Q9NZQ7 19-290); assay: flow cytometry on PD-L1 transfected CHO-S cells, sample without uPa
# T4 construct: whole, on cells
# [11] = target: T2, CD3 (Cluster of Differentiation 3) on …; assay: cell ELISA on Jurkat cells (CD3), OD450
binder,measurement,setting,value
B1,EC50,[1],14 nM
same,"CD40 reporter gene assay, fold masking of activity",[2],55 fold
same,"EC50, CD40 RGA, FcgRIIB CHOK1 (sample v32479 - uPa)",[3],2.64 µg/mL
same,"EC50, CD40 RGA, WT CHOK1 (sample v32479 - uPa)",[3],44.7 µg/mL
same,"Fold wrt WT (EC50), CD40 RGA, FcgRIIB CHOK1 (sample v32479 - uPa)",[3],54.3 fold
same,"Fold wrt WT (EC50), CD40 RGA, WT CHOK1 (sample v32479 - uPa)",[3],326 fold
same,fold reduction of binding vs unmasked v32477,[4],14 fold
B2,EC50,[1],0.98 nM
same,EC50,[5],1 nM
same,Fold wrt WT,[6],0.96 fold
same,EC50,[7],0.94 nM
same,"EC50, CD40 RGA, FcgRIIB CHOK1 (sample v32477 + uPa)",[3],0.03 µg/mL
same,"EC50, CD40 RGA, FcgRIIB CHOK1 (sample v32477 - uPa)",[3],0.05 µg/mL
same,"EC50, CD40 RGA, HEK Blue only (sample v32477 + uPa)",[3],0.13 µg/mL
same,"EC50, CD40 RGA, HEK Blue only (sample v32477 - uPa)",[3],0.15 µg/mL
same,"EC50, CD40 RGA, WT CHOK1 (sample v32477 + uPa)",[3],0.1 µg/mL
same,"EC50, CD40 RGA, WT CHOK1 (sample v32477 - uPa)",[3],0.14 µg/mL
same,"Fold wrt WT (EC50), CD40 RGA, FcgRIIB CHOK1 (sample v32477 + uPa)",[3],0.71 fold
same,"Fold wrt WT (EC50), CD40 RGA, HEK Blue only (sample v32477 + uPa)",[3],0.86 fold
same,"Fold wrt WT (EC50), CD40 RGA, WT CHOK1 (sample v32477 + uPa)",[3],0.75 fold
B3,Fold wrt WT,[8],150 fold
same,Fold wrt v31931,[9],> 35 fold
same,binding result,[10],no binding (tested: titrated from 200 nM at a 1:3 dilution)
same,EC50,[11],180 nM
